The source of these data is paper PMC10273338, “HspB8 interacts with BAG3 in a “native‐like” conformation forming a complex that displays chaperone‐like activity” (Protein Science : A Publication of the Protein Society, 2023).

B1: Josephin domain of ataxin-3 (domain or fragment, UniProt P54252 1-180, looked up)
chain: MESIFHEKQEGSLCAQHCLNNLLQGEYFSPVELSSIAHQLDEEERMRMAEGGVTSEDYRTFLQQPSGNMDDSGFFSIQVISNALKVWGLELILFNSPEYQRLRIDPINERSFICNYKEHWFTVRKLGKQWFNLNSLLTGPELISDTYLALFLAQLQQEGYSIFVVKGDLPDCEADQLLQM
notes: cloned in pET21-a; likely residues 1-182 of human ataxin-3 (surmised). pET21-a may add a C-terminal His6 tag; also called JD; source: E. coli BL21 Tuner (DE3) pLacI, purified as previously described (Bonanomi et al., 2015)
B2: HspB8 (natural protein, UniProt Q9UJY1 1-196, looked up)
chain: MADGQMPFSCHYPSRLRRDPFRDSPLSSRLLDDGFGMDPFPDDLTASWPDWALPRLSSAWPGTLRSGMVPRGPTATARFGVPAEGRTPPPFPGEPWKVCVNVHSFKPEELMVKTKDGYVEVSGKHEEKQQEGGIVSKNFTKKIQLPAEVDPVTVFASLSPEGLLIIEAPQVPPYSTFGESSFNNELPQDSQEVTCT
notes: HspB8, small heat shock protein; gene in pGEX-6P-1, provided by Serena Carra; source: E. coli BL21-CodonPlus(DE3)-RIL, purified (Glutathione Sepharose, PreScission cleavage on the resin, Superose 12 SEC); not shown: GST, N-terminal, cleaved
B3: HspB8-BAG3 complex (complex)
chain 1: B2 chain
chain 2: not shown

The target of assay [1] is B3. Nature of the assay: SPR; BIACORE X100; JD amine-coupled to a CM5 chip (3000 RU); single cycle kinetics at 25°C, 10 uL/min, 10 mM HEPES pH 7.4, 150 mM NaCl, 3 mM EDTA, 0.005% P20; Langmuir 1:1 fit, complex assumed to bind JD 1:1. To be noted: both partners purified. In general terms: Surface plasmon resonance follows binding to a sensor surface in real time, without labels.

Assay [2] concerns the target B2. Described as above. To be noted: both partners purified.
The target of assay [3] is T1, BAG3 (Bcl-2 associated athanogene protein 3) (human, UniProt O95817 1-575).
T1 construct: BAG3, human; no removal of the tag is described; source: E. coli M15 (pREP4), purified (HisPur Cobalt resin, Superose 12 SEC)
The description is as above. To be noted: both partners purified.

Assay [4] addresses T1, BAG3 (Bcl-2 associated athanogene …). Nature of the assay: SPR; BIACORE X; HspB8 amine-coupled to a CM5 chip (7400 RU); running buffer 10 mM HEPES pH 7.4, 150 mM NaCl, 3 mM EDTA, 0.005% P20; 10 uL/min; Langmuir 1:1 fit. To be noted: both partners purified.
Assay [5] has as its target B1. Briefly: cell-based or functional assay.
Assay [6] has as its target T1, BAG3 (Bcl-2 associated athanogene …). Nature of the assay: SPR; BIACORE X; BAG3 amine-coupled to a CM5 chip (3400 RU); running buffer 10 mM HEPES pH 7.4, 150 mM NaCl, 3 mM EDTA, 0.005% P20; 10 uL/min; Langmuir 1:1 fit. To be noted: both partners purified.

HspB8-BAG3 complex, sequence (O95817 whole entry, one chain of several): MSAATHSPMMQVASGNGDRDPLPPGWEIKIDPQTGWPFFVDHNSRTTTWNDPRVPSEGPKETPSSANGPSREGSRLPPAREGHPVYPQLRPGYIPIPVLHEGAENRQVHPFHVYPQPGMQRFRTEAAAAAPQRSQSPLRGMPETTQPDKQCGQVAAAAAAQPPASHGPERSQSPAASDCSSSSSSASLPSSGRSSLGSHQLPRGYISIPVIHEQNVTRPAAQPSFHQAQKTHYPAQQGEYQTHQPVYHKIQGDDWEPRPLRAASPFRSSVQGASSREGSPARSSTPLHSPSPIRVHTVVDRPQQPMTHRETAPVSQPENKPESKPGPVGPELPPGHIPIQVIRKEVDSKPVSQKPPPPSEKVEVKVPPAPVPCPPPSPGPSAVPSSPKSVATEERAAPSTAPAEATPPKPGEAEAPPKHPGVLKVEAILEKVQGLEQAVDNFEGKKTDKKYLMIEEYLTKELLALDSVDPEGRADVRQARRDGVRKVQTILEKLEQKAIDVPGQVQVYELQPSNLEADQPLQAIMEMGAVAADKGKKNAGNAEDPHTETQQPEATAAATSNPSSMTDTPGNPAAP
T1 sequence (O95817 whole entry): as the sequence (O95817 whole entry, one chain of several) above

The Kd is the equilibrium constant for the complex coming apart. A lower Kd goes with tighter binding. What is called koff is the rate constant with which the complex falls apart. As a reminder, the kon is the second-order rate constant of association. The low end stands for slow association, the high end for fast association. In assay [1], B1 displayed a Ka of 1.4e+07 M⁻¹, a Kd of 73 nM, a koff of 0.00024 s⁻¹ and a kon of 3300 M⁻¹ s⁻¹. Besides, in assay [2], the Ka amounted to 120000 M⁻¹, the Kd was 8100 nM, the koff turned out to be 0.0006 s⁻¹ and the kon amounted to 74 M⁻¹ s⁻¹. Besides, in assay [3], the Ka stood at 190000 M⁻¹, binding was put at a Kd of 5400 nM, the koff was 0.0014 s⁻¹ and the on-rate (kon) is 260 M⁻¹ s⁻¹.

On to B2, for which, in assay [4], the Ka was determined as 4.2e+08 M⁻¹, binding was characterised by a dissociation constant (Kd) of 2.4 nM, the koff is 0.00022 s⁻¹ and the kon stood at 93000 M⁻¹ s⁻¹. Also, in assay [5], the “inhibition of JD aggregation (ThT fluorescence, 10 uM JD at 37°C with HspB8 at different molar ratios; 20% at JD:HspB8 1:0.093, maximum at 4:1)” value stood at 35%. In assay [6], this molecule returned a Ka of 2.2e+08 M⁻¹, a Kd of 4.5 nM, an off-rate (koff) of 0.00056 s⁻¹ and a kon of 130000 M⁻¹ s⁻¹.

As to B3, in assay [5], the “inhibition of JD aggregation (ThT fluorescence, 10 uM JD at 37°C with the HspB8-BAG3 complex at different ratios; maximum at JD:complex 1:0.5)” value was found to be 40%.
